Data on two variants can be found in IntAct's records for PubMed 26237645.

B1: Fumarate hydratase, mitochondrial (Homo sapiens), P07954 (parent)
chain: MYRALRLLARSRPLVRAPAAALASAPGLGGAAVPSFWPPNAARMASQNSFRIEYDTFGELKVPNDKYYGAQTVRSTMNFKIGGVTERMPTPVIKAFGILKRAAAEVNQDYGLDPKIANAIMKAADEVAEGKLNDHFPLVVWQTGSGTQTNMNVNEVISNRAIEMLGGELGSKIPVHPNDHVNKSQSSNDTFPTAMHIAAAIEVHEVLLPGLQKLHDALDAKSKEFAQIIKIGRTHTQDAVPLTLGQEFSGYVQQVKYAMTRIKAAMPRIYELAAGGTAVGTGLNTRIGFAEKVAAKVAALTGLPFVTAPNKFEALAAHDALVELSGAMNTTACSLMKIANDIRFLGSGPRSGLGELILPENEPGSSIMPGKVNPTQCEAMTMVAAQVMGNHVAVTVGGSNGHFELNVFKPMMIKNVLHSARLLGDASVSFTENCVVGIQANTERINKLMNESLMLVTALNPHIGYDKAAKIAKTAHKNGSTLKETAIELGYLTAEQFDEWVKPKDMLGPK

In the first assay the parent is B1. Conditions: with h2az_human H2AZ1, P0C0S5.
h2az_human H2AZ1, P0C0S5, sequence (P0C0S5 whole entry): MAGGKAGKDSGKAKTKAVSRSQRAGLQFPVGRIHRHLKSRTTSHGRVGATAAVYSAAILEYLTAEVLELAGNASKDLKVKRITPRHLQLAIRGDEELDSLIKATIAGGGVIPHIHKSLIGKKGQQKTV
As for MYRALRLLARSRPLVRAPAAALASAPGLGGAAVPSFWPPNAARMASQNSFRIEYDTFGELKVPNDKYYGAQTVRSTMNFKIGGVTERMPTPVIKAFGILKRAAAEVNQDYGLDPKIANAIMKAADEVAEGKLNDHFPLVVWQTGSGTQTNMNVNEVISNRAIEMLGGELGSKIPVHPNDHVNKSQSSNDTFPTAMHIAAAIEVHEVLLPGLQKLHDALDAKSKEFAQIIKIGRTHDQDAVPLTLGQEFSGYVQQVKYAMTRIKAAMPRIYELAAGGTAVGTGLNTRIGFAEKVAAKVAALTGLPFVTAPNKFEALAAHDALVELSGAMNTTACSLMKIANDIRFLGSGPRSGLGELILPENEPGSSIMPGKVNPTQCEAMTMVAAQVMGNHVAVTVGGSNGHFELNVFKPMMIKNVLHSARLLGDASVSFTENCVVGIQANTERINKLMNESLMLVTALNPHIGYDKAAKIAKTAHKNGSTLKETAIELGYLTAEQFDEWVKPKDMLGPK [T236D], the “effect of a mutation on the interaction” value is listed as “increasing interaction strength”. On the same count and under the same terms, next, MYRALRLLARSRPLVRAPAAALASAPGLGGAAVPSFWPPNAARMASQNSFRIEYDTFGELKVPNDKYYGAQTVRSTMNFKIGGVTERMPTPVIKAFGILKRAAAEVNQDYGLDPKIANAIMKAADEVAEGKLNDHFPLVVWQTGSGTQTNMNVNEVISNRAIEMLGGELGSKIPVHPNDHVNKSQSSNDTFPTAMHIAAAIEVHEVLLPGLQKLHDALDAKSKEFAQIIKIGRTHAQDAVPLTLGQEFSGYVQQVKYAMTRIKAAMPRIYELAAGGTAVGTGLNTRIGFAEKVAAKVAALTGLPFVTAPNKFEALAAHDALVELSGAMNTTACSLMKIANDIRFLGSGPRSGLGELILPENEPGSSIMPGKVNPTQCEAMTMVAAQVMGNHVAVTVGGSNGHFELNVFKPMMIKNVLHSARLLGDASVSFTENCVVGIQANTERINKLMNESLMLVTALNPHIGYDKAAKIAKTAHKNGSTLKETAIELGYLTAEQFDEWVKPKDMLGPK [T236A]: “disrupting interaction strength”.

Variants of B1 are the subject of the next assay. To be noted: with h2az_human H2AZ1, P0C0S5. This is another data set of the same source.
MYRALRLLARSRPLVRAPAAALASAPGLGGAAVPSFWPPNAARMASQNSFRIEYDTFGELKVPNDKYYGAQTVRSTMNFKIGGVTERMPTPVIKAFGILKRAAAEVNQDYGLDPKIANAIMKAADEVAEGKLNDHFPLVVWQTGSGTQTNMNVNEVISNRAIEMLGGELGSKIPVHPNDHVNKSQSSNDTFPTAMHIAAAIEVHEVLLPGLQKLHDALDAKSKEFAQIIKIGRTHAQDAVPLTLGQEFSGYVQQVKYAMTRIKAAMPRIYELAAGGTAVGTGLNTRIGFAEKVAAKVAALTGLPFVTAPNKFEALAAHDALVELSGAMNTTACSLMKIANDIRFLGSGPRSGLGELILPENEPGSSIMPGKVNPTQCEAMTMVAAQVMGNHVAVTVGGSNGHFELNVFKPMMIKNVLHSARLLGDASVSFTENCVVGIQANTERINKLMNESLMLVTALNPHIGYDKAAKIAKTAHKNGSTLKETAIELGYLTAEQFDEWVKPKDMLGPK [T236A]: the “effect of a mutation on the interaction” value is reported as “decreasing interaction strength”.
